The values that follow are results of earlier work, collected in paper PMC8131754.

The term pKd denotes −log10 of the Kd, conventionally taken in molar units.

For the data set, the target named is SRC-2 coactivator peptide (Homo sapiens) (UniProt Q15596).

pKd: −log10 of the molar value.

Sequence of UniProt Q15596 (Q15596 2-1464): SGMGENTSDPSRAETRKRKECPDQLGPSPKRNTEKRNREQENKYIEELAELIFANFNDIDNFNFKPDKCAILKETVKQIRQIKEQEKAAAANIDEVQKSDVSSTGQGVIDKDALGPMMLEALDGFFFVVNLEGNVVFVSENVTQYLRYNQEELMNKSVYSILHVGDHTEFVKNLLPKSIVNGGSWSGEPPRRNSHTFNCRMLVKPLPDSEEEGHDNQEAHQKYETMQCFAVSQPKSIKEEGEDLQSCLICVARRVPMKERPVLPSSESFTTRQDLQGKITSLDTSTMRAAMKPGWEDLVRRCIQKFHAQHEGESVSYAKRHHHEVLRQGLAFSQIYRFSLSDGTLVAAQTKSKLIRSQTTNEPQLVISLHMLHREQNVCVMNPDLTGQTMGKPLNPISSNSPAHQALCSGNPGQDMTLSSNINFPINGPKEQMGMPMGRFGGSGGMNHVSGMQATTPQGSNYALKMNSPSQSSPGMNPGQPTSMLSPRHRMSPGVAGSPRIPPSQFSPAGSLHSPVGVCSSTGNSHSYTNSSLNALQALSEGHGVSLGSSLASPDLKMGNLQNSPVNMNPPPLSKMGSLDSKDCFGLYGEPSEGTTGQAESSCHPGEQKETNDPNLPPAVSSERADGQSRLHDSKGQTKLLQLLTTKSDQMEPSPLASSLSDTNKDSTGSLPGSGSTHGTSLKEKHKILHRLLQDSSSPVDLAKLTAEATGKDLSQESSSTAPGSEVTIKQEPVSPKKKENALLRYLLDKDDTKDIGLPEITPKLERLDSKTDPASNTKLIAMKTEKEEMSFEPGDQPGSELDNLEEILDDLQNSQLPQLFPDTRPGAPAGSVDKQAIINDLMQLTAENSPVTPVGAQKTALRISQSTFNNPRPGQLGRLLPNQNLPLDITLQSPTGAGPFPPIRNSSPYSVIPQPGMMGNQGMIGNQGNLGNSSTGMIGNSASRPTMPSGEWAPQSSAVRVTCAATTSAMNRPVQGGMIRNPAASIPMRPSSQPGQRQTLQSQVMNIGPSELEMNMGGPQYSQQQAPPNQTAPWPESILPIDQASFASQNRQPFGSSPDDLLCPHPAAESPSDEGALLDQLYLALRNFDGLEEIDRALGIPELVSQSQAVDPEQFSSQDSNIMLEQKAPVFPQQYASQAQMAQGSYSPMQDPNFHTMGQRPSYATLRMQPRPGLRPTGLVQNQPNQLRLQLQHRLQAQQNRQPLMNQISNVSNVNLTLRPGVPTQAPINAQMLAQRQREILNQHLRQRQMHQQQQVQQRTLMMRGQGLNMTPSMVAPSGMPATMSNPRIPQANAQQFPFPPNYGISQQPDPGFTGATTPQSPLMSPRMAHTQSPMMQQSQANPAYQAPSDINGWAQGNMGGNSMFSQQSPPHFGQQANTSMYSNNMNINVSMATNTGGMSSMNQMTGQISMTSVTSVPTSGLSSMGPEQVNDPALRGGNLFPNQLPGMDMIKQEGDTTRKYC

As for “Estrogen receptor α LBD (from UniProt P03372)”, the pKd was 6.76.
